This passage reports Km results from publication PMC9659335, “An unexpected role for leucyl aminopeptidase in UV tolerance revealed by a genome-wide fitness assessment in a model cyanobacterium” (Proceedings of the National Academy of Sciences of the …, 2022).

Substrate in series [1]: CC(C)C[C@H](N)C(=O)Nc1ccc([N+](=O)[O-])cc1
Description: purified protein. In kind it is biochemical, Synechococcus elongatus. The following applies: pH 7.5, 50 mM Tris-HCl, 0.2 mM MnCl2, 37 °C, 5 µg/mL enzyme.

Substrate in series [2]: N[C@@H](CS)C(=O)NCC(=O)O
Nature of the series: purified protein. In kind it is biochemical, Synechococcus elongatus. To be noted: pH 7.5, 50 mM Tris-HCl, 0.2 mM MnCl2, 37 °C, 5 µg/mL enzyme.

B1: SynPCC7942_1190 (LAP, leucyl aminopeptidase) (Synechococcus elongatus PCC 7942 = FACHB-805) (protein)
chain: MTFQAIATHPQDWTGDTLALGLTTAAIGETLSSELQKLDQQWNGVLQELISDSEFKAKLAETTTTRIGGSIRKLILVGLGESPTTEDYRRAAAAVAKQARSFKSQTLAIAFPPSDDPAAIASAIVEGISLALYKDQRFKSEPDTASGPSSIELLGLAGQEAAIARAEQVVAGVELARQLVAAPANVVTPVTMADTAQELAAELGLELEILEADECEKRGMGAFLGVAKASDLPPKFIHLTYRPESTPRRKLAIVGKGLTFDSGGYNIKGAGSGIEMMKTDMGGAAATLGAAKAIGLIKPDVEVHFISAVTENMISGRGMHPGDILTASNGKTIEVNNTDAEGRLTLADALVFADGLGVDAIVDLATLTGACIIALGDDIAGLWSPSDDLAEQLLQAGKAAGEKLWRLPLEEPYLDGLKSPVADYKNTGPRAGGSITAALFLKQFVKHPVWAHLDVAGPVWSDKEKHYNPAGATGYGVRTLVNWVLS
notes: full-length gene in pET-28b(+) (pAM5836), Strep-tag (text: N terminus)
On to B1, for which the figures for the Km in “purified protein [1]” and in the series “purified protein [2]” were 7.44 mM and 1.21 mM, respectively.
